Assay results from PMC12752648.

What was measured:
[1] = molecular target: oncolytic virus M1 (OVM) virions; test: virus binding to cells measured by qRT-PCR; conditions: 22Rv1 cells expressing TPRA1 variants; parent: est. 1.4; read off a plot
[2] = GFP-positive 22Rv1 cells by flow cytometry, 48 h; conditions: glycan lost; control: wild-type TPRA1
[3] = molecular target: oncolytic virus M1 (OVM) virions (oncolytic virus M1 (Getah-like alphavirus)); test: BLI; Octet RED96e; OVM loaded on aminopropylsilane (APS) biosensors in PBS; TPRA1-ECD-Fc (0.5-8 µM) or Fc (8 µM) in PBS with 0.02% Tween-20 and 1 mg/mL BSA; 1:1 binding model

## HA-tagged full-length TPRA1 (from UniProt Q86W33-1) N11Q; N23Q
[1]
  other: Relative change in binding: 0.35

## TPRA1 (transmembrane protein adipocyte-associated 1): N11/23Q
[2]
  other: susceptibility of cells to viral infection: decreases

## recombinant extracellular domain of TPRA1 fused to an Fc tag (TPRA1-ECD-Fc) (from UniProt Q86W33-1 1-47) (Fc fusion)
[3]
  Kd: 0.091 µM
